Experimental data taken from the supplement of paper PMC10567573.

B1: CDC25B (parent)
chain: ELKTFRLKTRSWAGERSRRELCSR

Variants of: B1
Assay: protein stability index of a GFP-peptide fusion (GPS, HEK-293T) (PSI 1-6); higher = more stable
Details: c terminus: a fixed tail appended
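Also: lentivirally expressed fusions sorted by FACS into six bins by GFP to DsRed ratio, PSI derived from sequencing read proportions per bin multiplied by bin number.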

Protein stability index of substitutions, site by site:
A13: Q 3.01, V 2.44, R 3.49, K 3.31, L 2.62, E 3.23, P 3.84, Y 2.22, I 2.22, G 3.41, H 3.81, M 2.92, F 1.88, S 2.85, C 2.94, T 3.1, W 2.2, D 3.98
G14: Y 2.05, E 3.16, P 2.25, K 2.7, T 3.53, W 3.23, H 2.65, V 2.19, S 2.39, N 2.48, C 2.5, I 2.67, M 2.66, A 2.42, F 3.15, L 2.61, Q 2.58, R 2.73, D 3.62
L2: S 4.12, D 3.81, V 3.44, R 3.67, G 3.75, W 2.83, M 3.87, P 3.89, H 3.74, T 3.72, E 4.97, K 3.53, Y 3.78, F 2.54, N 4.04, Q 4.5, I 3.17
S17: M 2.52, R 2.63, N 2.93, C 2.69, V 2.36, G 2.7, L 2.87, A 3.4, F 2.24, D 3.46, H 3.21, Q 3.35, P 3.35, I 2.32, Y 3.27, K 2.77, W 2.16, E 4.03, T 3.33
K3: A 2.92, R 3.6, Q 3.25, G 3.71, E 3.29, T 3.2, Y 2.91, V 2.67, C 2.78, H 3.63, L 2.14, F 1.61, S 3.62, D 3.33, M 3.02, I 1.89, W 2.44, P 3.42, N 3.38
L7: H 3.6, P 3.99, S 3.91, Y 3.29, T 4.08, G 4.12, I 3.25, D 3.86, M 3.81, E 4.07, K 4.68, R 4.57, W 2.99, V 3.33, C 3.98, N 3.57, Q 3.75, A 3.75
T9: R 4.65, C 3.58, I 1.99, W 1.54, S 4.09, M 2.3, Q 3.13, N 3.66, E 3.69, P 3.14, L 2.09, V 2.6, D 3.35, K 3.84, Y 3.16, G 4, F 2.18, H 3.29, A 3.66
R18: F 2.62, E 3.52, W 2.84, Y 2.58, V 3.6, M 3.36, Q 4.01, A 3.85, I 3.04, T 3.38, H 3.33, D 3.4, P 3.64, S 3.85, N 3.18, L 3.23, C 2.23, K 3.36, G 2.95
W12: G 3.54, N 3.45, E 4.2, C 2.87, P 3.55, I 3.3, F 3.34, H 3.64, M 2.43, A 3.16, T 3.38, L 3.41, V 3.45, R 4.08, D 4.12, Y 3.66, K 3.94, Q 3.49, S 3.54
